We go through 3 compounds from PMC4741518, “Adaptive Remodeling of the Bacterial Proteome by Specific Ribosomal Modification Regulates Pseudomonas Infection and Niche Colonisation” (PLoS Genetics, 2016).

For one test, the target named is T1, RimA (Pseudomonas fluorescens, UniProt A0ACD4XU64).
T1 construct: gene U0037_01330; full-length, His6-tagged (pETM11-rimA), E. coli BL21(DE3) pLysS, Ni-NTA purified
Briefly: phosphodiesterase assay, TLC of […]-cdG. The class given is biochemical. Conditions: labelled compound (100 μM cdG with 0.07 μM 32P-cdG); 10 mM MgCl2, pH 8.0, 30 °C; product pGpG.

For test [1], the target named is Ribosomal protein S6 modification protein RimK (P. fluorescens SBW25).
Ribosomal protein S6 modification protein RimK (P. fluorescens SBW25), sequence (C3KE61 whole entry): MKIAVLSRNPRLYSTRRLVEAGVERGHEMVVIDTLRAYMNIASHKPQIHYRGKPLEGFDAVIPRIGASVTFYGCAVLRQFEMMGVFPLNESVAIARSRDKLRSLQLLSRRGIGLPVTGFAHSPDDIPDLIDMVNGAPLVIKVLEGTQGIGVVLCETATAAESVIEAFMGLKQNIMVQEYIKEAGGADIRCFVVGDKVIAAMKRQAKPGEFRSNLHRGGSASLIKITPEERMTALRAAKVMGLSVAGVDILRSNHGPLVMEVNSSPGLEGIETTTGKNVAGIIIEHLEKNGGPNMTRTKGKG

T1 sequence (A0ACD4XU64 entry or part of it): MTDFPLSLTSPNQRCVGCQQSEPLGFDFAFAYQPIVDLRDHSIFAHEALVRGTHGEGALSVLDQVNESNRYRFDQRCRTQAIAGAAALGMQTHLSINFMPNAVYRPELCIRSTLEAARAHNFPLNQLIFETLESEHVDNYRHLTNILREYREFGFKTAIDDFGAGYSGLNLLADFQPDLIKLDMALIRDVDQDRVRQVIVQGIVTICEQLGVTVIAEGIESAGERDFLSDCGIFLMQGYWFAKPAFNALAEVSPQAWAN

For the compound `Nc1nc2c(ncn2[C@@H]2O[C@@H]3COP(=O)(O)O[C@H]4[C@@H](O)[C@H](n5cnc6c(=O)[nH]c(N)nc65)O[C@@H]4COP(=O)(O)O[C@H]3[C@H]2O)c(=O)[nH]1` [cdG], on RimA, the “phosphodiesterase assay, TLC of 32P-cdG” value is given as “RimA PDE activity was subsequently confirmed (Fig 4C)”.
As for “Conserved EAL domain protein RimA (enzyme)”, the RimKPf ATPase activity (linked PK/LDH assay, with glutamate): Vmax on addition of purified RimA; 234.9 without RimA in test [1] was 364 nmol/min/mg.
Compound “Putative uncharacterized protein RimB (natural protein)” gave a RimKPf ATPase activity (linked PK/LDH assay, with glutamate): Vmax on addition of purified RimB; 113.6 without RimB in test [1] of 691 nmol/min/mg.
